In ChEMBL document CHEMBL1130474, “Conformationally restricted arginine analogues as inhibitors of human nitric oxide synthase” (Bioorg Med Chem Lett, 1997):

B1: Nitric oxide synthase 3 (Homo sapiens), P29474 (protein)
chain: MGNLKSVAQEPGPPCGLGLGLGLGLCGKQGPATPAPEPSRAPASLLPPAPEHSPPSSPLTQPPEGPKFPRVKNWEVGSITYDTLSAQAQQDGPCTPRRCLGSLVFPRKLQGRPSPGPPAPEQLLSQARDFINQYYSSIKRSGSQAHEQRLQEVEAEVAATGTYQLRESELVFGAKQAWRNAPRCVGRIQWGKLQVFDARDCRSAQEMFTYICNHIKYATNRGNLRSAITVFPQRCPGRGDFRIWNSQLVRYAGYRQQDGSVRGDPANVEITELCIQHGWTPGNGRFDVLPLLLQAPDDPPELFLLPPELVLEVPLEHPTLEWFAALGLRWYALPAVSNMLLEIGGLEFPAAPFSGWYMSTEIGTRNLCDPHRYNILEDVAVCMDLDTRTTSSLWKDKAAVEINVAVLHSYQLAKVTIVDHHAATASFMKHLENEQKARGGCPADWAWIVPPISGSLTPVFHQEMVNYFLSPAFRYQPDPWKGSAAKGTGITRKKTFKEVANAVKISASLMGTVMAKRVKATILYGSETGRAQSYAQQLGRLFRKAFDPRVLCMDEYDVVSLEHETLVLVVTSTFGNGDPPENGESFAAALMEMSGPYNSSPRPEQHKSYKIRFNSISCSDPLVSSWRRKRKESSNTDSAGALGTLRFCVFGLGSRAYPHFCAFARAVDTRLEELGGERLLQLGQGDELCGQEEAFRGWAQAAFQAACETFCVGEDAKAAARDIFSPKRSWKRQRYRLSAQAEGLQLLPGLIHVHRRKMFQATIRSVENLQSSKSTRATILVRLDTGGQEGLQYQPGDHIGVCPPNRPGLVEALLSRVEDPPAPTEPVAVEQLEKGSPGGPPPGWVRDPRLPPCTLRQALTFFLDITSPPSPQLLRLLSTLAEEPREQQELEALSQDPRRYEEWKWFRCPTLLEVLEQFPSVALPAPLLLTQLPLLQPRYYSVSSAPSTHPGEIHLTVAVLAYRTQDGLGPLHYGVCSTWLSQLKPGDPVPCFIRGAPSFRLPPDPSLPCILVGPGTGIAPFRGFWQERLHDIESKGLQPTPMTLVFGCRCSQLDHLYRDEVQNAQQRGVFGRVLTAFSREPDNPKTYVQDILRTELAAEVHRVLCLERGHMFVCGDVTMATNVLQTVQRILATEGDMELDEAGDVIGVLRDQQRYHEDIFGLTLRTQEVTSRIRTQSFSLQERQLRGAVPWAFDPPGSDTNSP
B2: Nitric oxide synthase 1 (Homo sapiens), P29475 (protein)
chain: MEDHMFGVQQIQPNVISVRLFKRKVGGLGFLVKERVSKPPVIISDLIRGGAAEQSGLIQAGDIILAVNGRPLVDLSYDSALEVLRGIASETHVVLILRGPEGFTTHLETTFTGDGTPKTIRVTQPLGPPTKAVDLSHQPPAGKEQPLAVDGASGPGNGPQHAYDDGQEAGSLPHANGLAPRPPGQDPAKKATRVSLQGRGENNELLKEIEPVLSLLTSGSRGVKGGAPAKAEMKDMGIQVDRDLDGKSHKPLPLGVENDRVFNDLWGKGNVPVVLNNPYSEKEQPPTSGKQSPTKNGSPSKCPRFLKVKNWETEVVLTDTLHLKSTLETGCTEYICMGSIMHPSQHARRPEDVRTKGQLFPLAKEFIDQYYSSIKRFGSKAHMERLEEVNKEIDTTSTYQLKDTELIYGAKHAWRNASRCVGRIQWSKLQVFDARDCTTAHGMFNYICNHVKYATNKGNLRSAITIFPQRTDGKHDFRVWNSQLIRYAGYKQPDGSTLGDPANVQFTEICIQQGWKPPRGRFDVLPLLLQANGNDPELFQIPPELVLEVPIRHPKFEWFKDLGLKWYGLPAVSNMLLEIGGLEFSACPFSGWYMGTEIGVRDYCDNSRYNILEEVAKKMNLDMRKTSSLWKDQALVEINIAVLYSFQSDKVTIVDHHSATESFIKHMENEYRCRGGCPADWVWIVPPMSGSITPVFHQEMLNYRLTPSFEYQPDPWNTHVWKGTNGTPTKRRAIGFKKLAEAVKFSAKLMGQAMAKRVKATILYATETGKSQAYAKTLCEIFKHAFDAKVMSMEEYDIVHLEHETLVLVVTSTFGNGDPPENGEKFGCALMEMRHPNSVQEERKSYKVRFNSVSSYSDSQKSSGDGPDLRDNFESAGPLANVRFSVFGLGSRAYPHFCAFGHAVDTLLEELGGERILKMREGDELCGQEEAFRTWAKKVFKAACDVFCVGDDVNIEKANNSLISNDRSWKRNKFRLTFVAEAPELTQGLSNVHKKRVSAARLLSRQNLQSPKSSRSTIFVRLHTNGSQELQYQPGDHLGVFPGNHEDLVNALIERLEDAPPVNQMVKVELLEERNTALGVISNWTDELRLPPCTIFQAFKYYLDITTPPTPLQLQQFASLATSEKEKQRLLVLSKGLQEYEEWKWGKNPTIVEVLEEFPSIQMPATLLLTQLSLLQPRYYSISSSPDMYPDEVHLTVAIVSYRTRDGEGPIHHGVCSSWLNRIQADELVPCFVRGAPSFHLPRNPQVPCILVGPGTGIAPFRSFWQQRQFDIQHKGMNPCPMVLVFGCRQSKIDHIYREETLQAKNKGVFRELYTAYSREPDKPKKYVQDILQEQLAESVYRALKEQGGHIYVCGDVTMAADVLKAIQRIMTQQGKLSAEDAGVFISRMRDDNRYHEDIFGVTLRTYEVTNRLRSESIAFIEESKKDTDEVFSS

Legend:
[1] = substrate: N=C(N)NCCC[C@H](N)C(=O)O
[2] = substrate: N=C(N)NCCC[C@H](N)C(=O)O; remark: listed apart in the source

Protein | Km [1] [µM] | Km [2] [µM]
B1 | 0.9 | 
B2 |  | 1.6
